# Results from patent US20200377595A1 (Chugai, published 2020).
# Several values for one entry are separate records, joined by “and”; a condition that tells them apart may be missing. Identical values can stand only once.
# Molecular target: T1, biotin-labeled cynomolgus monkey CD137 fused to human IgG1 Fc fragment (cynomolgus monkey; human, UniProt Q07011 24-186, limits assumed, biotin-labeled)
# T1 construct: also called cyno CD137-Fc; not shown: human IgG1 Fc fragment
# T1 chain: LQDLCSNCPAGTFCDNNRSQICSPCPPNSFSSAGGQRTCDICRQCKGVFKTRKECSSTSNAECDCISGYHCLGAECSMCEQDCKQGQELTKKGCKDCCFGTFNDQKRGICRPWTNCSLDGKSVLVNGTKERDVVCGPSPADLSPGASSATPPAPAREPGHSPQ
# Experiment: ELISA, IgG
row,Binder,binding result
1,"dBBDu217 (antibody, IgG1, V domains shown, IgG1) VH: QVQLVESGGGLVQPGRSLRLSCAASGFTFSNAWMHWVRQAPGKGLEWVAQIKDRQQGYATYYAPSVKGRFTISRDDSKNSIYLQMNSLKTEDTAVYYCRFVHYHLAGYGYYGVDAWGQGTTVTVSS VL: DIVMTQSPLSLPVTPGEPASISCRSSQSLVHSNRNTYLHWYQQKPGQAPRLLIYKVSNRFSGVPDRFSGSGSGTDFTLKISRVEAEDVGVYYCGQGTQVPYTFGQGTKLEIK",binds
2,"dBBDu174 (antibody, IgG1, V domains shown, IgG1) VH: QVQLVESGGGLVQPGRSLRLSCAASGFTFSSAWMHWVRQAPGKGLEWVAQIKDRASAYNAYYAESVKGRFTISRDDSKNSIYLQMNSLKTEDTAVYYCRYVHYPSYVSFLPYYGVDAWGQGTTVTVSS VL: DIVMTQSPLSLPVTPGEPASISCRSSQSLVHSNRNTYLHWYQQKPGQAPRLLIYKVSNRFSGVPDRFSGSGSGTDFTLKISRVEAEDVGVYYCGQGTQVPYTFGQGTKLEIK",binds

# Molecular target: biotinylated CD3 epsilon epitope peptide
# Experiment: SPR, method of Ref. Ex. 3, one-arm Ab
row,Binder,Kd
1,"CE115HA000 V11L/D72A/L78I/D101Q with GGS inserted between Kabat 99 and 100, one-arm antibody (antibody) chain 1: QVQLVESGGGLVQPGRSLRLSCAASGFTFSNAWMHWVRQAPGKGLEWVAQIKAKSNNYATYYAESVKGRFTISRADSKNSIYLQMNSLKTEDTAVYYCRYVHYGAGGSYYGVQAWGQGTTVTVSSASTKGPSVFPLAPSSKSTSGGTAALGCLVKDYFPEPVTVSWNSGALTSGVHTFPAVLQSSGLYSLSSVVTVPSSSLGTQTYICNVNHKPSNTKVDKKVEPKSCDKTHTCPPCPAPEAAGGPSVFLFPPKPKDTLMISRTPEVTCVVVDVSHEDPEVKFNWYVDGVEVHNAKTKPREEQYASTYRVVSVLTVLHQDWLNGKEYKCKVSNKALPAPIEKTISKAKGQPREPQVYTLPPSRCELTKNQVSLSCAVKGFYPSDIAVEWESNGQPENNYKTTPPVLDSDGSFFLVSKLTVDKSRWQQGNVFSCSVMHEALHNHYTQKSLSLSPDYKDDDDK chain 2: EPKSSDKTHTCPPCPAPELLGGPSVFLFPPKPKDTLMISRTPEVTCVVVDVSHEDPEVKFNWYVDGVEVHNAKTKPREEQYNSTYRVVSVLTVLHQDWLNGKEYKCKVSNKALPAPIEKTISKAKGQPREPQVCTLPPSRDELTKNQVSLWCLVKGFYPSDIAVEWESNGQPENNYKTTPPVLDSDGSFFLYSKLTVDKSRWQQGNVFSCSVMHEALHNRYTQKSLSLSP chain 3: DIVMTQSPLSLPVTPGEPASISCRSSQSLVHSNRNTYLHWYQQKPGQAPRLLIYKVSNRFSGVPDRFSGSGSGTDFTLKISRVEAEDVGVYYCGQGTQVPYTFGQGTKLEIKRTVAAPSVFIFPPSDEQLKSGTASVVCLLNNFYPREAKVQWKVDNALQSGNSQESVTEQDSKDSTYSLSSTLTLSKADYEKHKVYACEVTHQGLSSPVTKSFNRGEC",0.0631 µM
2,"CE115HA000 V11L/D72A/L78I/D101Q with GGSGGS inserted between Kabat 99 and 100, one-arm antibody (antibody) chain 1: QVQLVESGGGLVQPGRSLRLSCAASGFTFSNAWMHWVRQAPGKGLEWVAQIKAKSNNYATYYAESVKGRFTISRADSKNSIYLQMNSLKTEDTAVYYCRYVHYGAGGSGGSYYGVQAWGQGTTVTVSSASTKGPSVFPLAPSSKSTSGGTAALGCLVKDYFPEPVTVSWNSGALTSGVHTFPAVLQSSGLYSLSSVVTVPSSSLGTQTYICNVNHKPSNTKVDKKVEPKSCDKTHTCPPCPAPEAAGGPSVFLFPPKPKDTLMISRTPEVTCVVVDVSHEDPEVKFNWYVDGVEVHNAKTKPREEQYASTYRVVSVLTVLHQDWLNGKEYKCKVSNKALPAPIEKTISKAKGQPREPQVYTLPPSRCELTKNQVSLSCAVKGFYPSDIAVEWESNGQPENNYKTTPPVLDSDGSFFLVSKLTVDKSRWQQGNVFSCSVMHEALHNHYTQKSLSLSPDYKDDDDK chain 2: EPKSSDKTHTCPPCPAPELLGGPSVFLFPPKPKDTLMISRTPEVTCVVVDVSHEDPEVKFNWYVDGVEVHNAKTKPREEQYNSTYRVVSVLTVLHQDWLNGKEYKCKVSNKALPAPIEKTISKAKGQPREPQVCTLPPSRDELTKNQVSLWCLVKGFYPSDIAVEWESNGQPENNYKTTPPVLDSDGSFFLYSKLTVDKSRWQQGNVFSCSVMHEALHNRYTQKSLSLSP chain 3: DIVMTQSPLSLPVTPGEPASISCRSSQSLVHSNRNTYLHWYQQKPGQAPRLLIYKVSNRFSGVPDRFSGSGSGTDFTLKISRVEAEDVGVYYCGQGTQVPYTFGQGTKLEIKRTVAAPSVFIFPPSDEQLKSGTASVVCLLNNFYPREAKVQWKVDNALQSGNSQESVTEQDSKDSTYSLSSTLTLSKADYEKHKVYACEVTHQGLSSPVTKSFNRGEC",0.0346 µM and 0.0311 µM
3,"CE115HA000 V11L/D72A/L78I/D101Q with GGSGGGS inserted between Kabat 99 and 100, one-arm antibody (antibody) chain 1: QVQLVESGGGLVQPGRSLRLSCAASGFTFSNAWMHWVRQAPGKGLEWVAQIKAKSNNYATYYAESVKGRFTISRADSKNSIYLQMNSLKTEDTAVYYCRYVHYGAGGSGGGSYYGVQAWGQGTTVTVSSASTKGPSVFPLAPSSKSTSGGTAALGCLVKDYFPEPVTVSWNSGALTSGVHTFPAVLQSSGLYSLSSVVTVPSSSLGTQTYICNVNHKPSNTKVDKKVEPKSCDKTHTCPPCPAPEAAGGPSVFLFPPKPKDTLMISRTPEVTCVVVDVSHEDPEVKFNWYVDGVEVHNAKTKPREEQYASTYRVVSVLTVLHQDWLNGKEYKCKVSNKALPAPIEKTISKAKGQPREPQVYTLPPSRCELTKNQVSLSCAVKGFYPSDIAVEWESNGQPENNYKTTPPVLDSDGSFFLVSKLTVDKSRWQQGNVFSCSVMHEALHNHYTQKSLSLSPDYKDDDDK chain 2: EPKSSDKTHTCPPCPAPELLGGPSVFLFPPKPKDTLMISRTPEVTCVVVDVSHEDPEVKFNWYVDGVEVHNAKTKPREEQYNSTYRVVSVLTVLHQDWLNGKEYKCKVSNKALPAPIEKTISKAKGQPREPQVCTLPPSRDELTKNQVSLWCLVKGFYPSDIAVEWESNGQPENNYKTTPPVLDSDGSFFLYSKLTVDKSRWQQGNVFSCSVMHEALHNRYTQKSLSLSP chain 3: DIVMTQSPLSLPVTPGEPASISCRSSQSLVHSNRNTYLHWYQQKPGQAPRLLIYKVSNRFSGVPDRFSGSGSGTDFTLKISRVEAEDVGVYYCGQGTQVPYTFGQGTKLEIKRTVAAPSVFIFPPSDEQLKSGTASVVCLLNNFYPREAKVQWKVDNALQSGNSQESVTEQDSKDSTYSLSSTLTLSKADYEKHKVYACEVTHQGLSSPVTKSFNRGEC",0.0435 µM and 0.0343 µM
4,"CE115HA000 V11L/D72A/L78I/D101Q with GGGSGGGS inserted between Kabat 99 and 100, one-arm antibody (antibody) chain 1: QVQLVESGGGLVQPGRSLRLSCAASGFTFSNAWMHWVRQAPGKGLEWVAQIKAKSNNYATYYAESVKGRFTISRADSKNSIYLQMNSLKTEDTAVYYCRYVHYGAGGGSGGGSYYGVQAWGQGTTVTVSSASTKGPSVFPLAPSSKSTSGGTAALGCLVKDYFPEPVTVSWNSGALTSGVHTFPAVLQSSGLYSLSSVVTVPSSSLGTQTYICNVNHKPSNTKVDKKVEPKSCDKTHTCPPCPAPEAAGGPSVFLFPPKPKDTLMISRTPEVTCVVVDVSHEDPEVKFNWYVDGVEVHNAKTKPREEQYASTYRVVSVLTVLHQDWLNGKEYKCKVSNKALPAPIEKTISKAKGQPREPQVYTLPPSRCELTKNQVSLSCAVKGFYPSDIAVEWESNGQPENNYKTTPPVLDSDGSFFLVSKLTVDKSRWQQGNVFSCSVMHEALHNHYTQKSLSLSPDYKDDDDK chain 2: EPKSSDKTHTCPPCPAPELLGGPSVFLFPPKPKDTLMISRTPEVTCVVVDVSHEDPEVKFNWYVDGVEVHNAKTKPREEQYNSTYRVVSVLTVLHQDWLNGKEYKCKVSNKALPAPIEKTISKAKGQPREPQVCTLPPSRDELTKNQVSLWCLVKGFYPSDIAVEWESNGQPENNYKTTPPVLDSDGSFFLYSKLTVDKSRWQQGNVFSCSVMHEALHNRYTQKSLSLSP chain 3: DIVMTQSPLSLPVTPGEPASISCRSSQSLVHSNRNTYLHWYQQKPGQAPRLLIYKVSNRFSGVPDRFSGSGSGTDFTLKISRVEAEDVGVYYCGQGTQVPYTFGQGTKLEIKRTVAAPSVFIFPPSDEQLKSGTASVVCLLNNFYPREAKVQWKVDNALQSGNSQESVTEQDSKDSTYSLSSTLTLSKADYEKHKVYACEVTHQGLSSPVTKSFNRGEC",0.0413 µM and 0.0375 µM
5,"CE115HA000 V11L/D72A/L78I/D101Q with GGSGGSGGS inserted between Kabat 99 and 100, one-arm antibody (antibody) chain 1: QVQLVESGGGLVQPGRSLRLSCAASGFTFSNAWMHWVRQAPGKGLEWVAQIKAKSNNYATYYAESVKGRFTISRADSKNSIYLQMNSLKTEDTAVYYCRYVHYGAGGSGGSGGSYYGVQAWGQGTTVTVSSASTKGPSVFPLAPSSKSTSGGTAALGCLVKDYFPEPVTVSWNSGALTSGVHTFPAVLQSSGLYSLSSVVTVPSSSLGTQTYICNVNHKPSNTKVDKKVEPKSCDKTHTCPPCPAPEAAGGPSVFLFPPKPKDTLMISRTPEVTCVVVDVSHEDPEVKFNWYVDGVEVHNAKTKPREEQYASTYRVVSVLTVLHQDWLNGKEYKCKVSNKALPAPIEKTISKAKGQPREPQVYTLPPSRCELTKNQVSLSCAVKGFYPSDIAVEWESNGQPENNYKTTPPVLDSDGSFFLVSKLTVDKSRWQQGNVFSCSVMHEALHNHYTQKSLSLSPDYKDDDDK chain 2: EPKSSDKTHTCPPCPAPELLGGPSVFLFPPKPKDTLMISRTPEVTCVVVDVSHEDPEVKFNWYVDGVEVHNAKTKPREEQYNSTYRVVSVLTVLHQDWLNGKEYKCKVSNKALPAPIEKTISKAKGQPREPQVCTLPPSRDELTKNQVSLWCLVKGFYPSDIAVEWESNGQPENNYKTTPPVLDSDGSFFLYSKLTVDKSRWQQGNVFSCSVMHEALHNRYTQKSLSLSP chain 3: DIVMTQSPLSLPVTPGEPASISCRSSQSLVHSNRNTYLHWYQQKPGQAPRLLIYKVSNRFSGVPDRFSGSGSGTDFTLKISRVEAEDVGVYYCGQGTQVPYTFGQGTKLEIKRTVAAPSVFIFPPSDEQLKSGTASVVCLLNNFYPREAKVQWKVDNALQSGNSQESVTEQDSKDSTYSLSSTLTLSKADYEKHKVYACEVTHQGLSSPVTKSFNRGEC",0.0439 µM and 0.0354 µM
6,"CE115HA000 V11L/D72A/L78I/D101Q without insertion, one-arm antibody (antibody, human IgG1, kappa, L234A L235A, N297A, name in Kabat numbering, one-arm antibody; 'No insertion' read as the altered H chain without linker; also called No insertion) heavy: QVQLVESGGGLVQPGRSLRLSCAASGFTFSNAWMHWVRQAPGKGLEWVAQIKAKSNNYATYYAESVKGRFTISRADSKNSIYLQMNSLKTEDTAVYYCRYVHYGAYYGVQAWGQGTTVTVSSASTKGPSVFPLAPSSKSTSGGTAALGCLVKDYFPEPVTVSWNSGALTSGVHTFPAVLQSSGLYSLSSVVTVPSSSLGTQTYICNVNHKPSNTKVDKKVEPKSCDKTHTCPPCPAPEAAGGPSVFLFPPKPKDTLMISRTPEVTCVVVDVSHEDPEVKFNWYVDGVEVHNAKTKPREEQYASTYRVVSVLTVLHQDWLNGKEYKCKVSNKALPAPIEKTISKAKGQPREPQVYTLPPSRCELTKNQVSLSCAVKGFYPSDIAVEWESNGQPENNYKTTPPVLDSDGSFFLVSKLTVDKSRWQQGNVFSCSVMHEALHNHYTQKSLSLSPDYKDDDDK EPKSSDKTHTCPPCPAPELLGGPSVFLFPPKPKDTLMISRTPEVTCVVVDVSHEDPEVKFNWYVDGVEVHNAKTKPREEQYNSTYRVVSVLTVLHQDWLNGKEYKCKVSNKALPAPIEKTISKAKGQPREPQVCTLPPSRDELTKNQVSLWCLVKGFYPSDIAVEWESNGQPENNYKTTPPVLDSDGSFFLYSKLTVDKSRWQQGNVFSCSVMHEALHNRYTQKSLSLSP light: DIVMTQSPLSLPVTPGEPASISCRSSQSLVHSNRNTYLHWYQQKPGQAPRLLIYKVSNRFSGVPDRFSGSGSGTDFTLKISRVEAEDVGVYYCGQGTQVPYTFGQGTKLEIKRTVAAPSVFIFPPSDEQLKSGTASVVCLLNNFYPREAKVQWKVDNALQSGNSQESVTEQDSKDSTYSLSSTLTLSKADYEKHKVYACEVTHQGLSSPVTKSFNRGEC",0.00696 µM
